Reference: article PMC7849420 (Virology, 2021)

T1: recombinant truncated HuCoV-NL63 nucleocapsid (N) protein AA100-377 (HuCoV-NL63, UniProt Q6Q1R8 100-377)
T1 sequence: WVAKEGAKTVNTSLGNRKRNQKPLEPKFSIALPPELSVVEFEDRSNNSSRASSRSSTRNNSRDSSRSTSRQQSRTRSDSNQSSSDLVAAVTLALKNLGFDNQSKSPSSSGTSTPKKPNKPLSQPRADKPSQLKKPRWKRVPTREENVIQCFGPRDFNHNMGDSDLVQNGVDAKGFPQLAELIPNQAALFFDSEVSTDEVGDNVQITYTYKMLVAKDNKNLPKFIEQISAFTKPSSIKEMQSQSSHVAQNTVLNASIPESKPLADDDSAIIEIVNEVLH


Experiments:
Experiment in all cases: ELISA
[1] = biological target: recombinant truncated SARS-CoV-2 nucleocapsid (N) protein AA133-419 (SARS-CoV-2, UniProt P0DTC9 133-419)
[2] = biological target: recombinant truncated SARS-CoV nucleocapsid (N) protein AA133-422 (SARS-CoV, UniProt P59595 133-422)
[3] = biological target: recombinant truncated SARS-CoV nucleocapsid (N) protein AA133-422 (SARS-CoV, UniProt P59595)
[4] = biological target: recombinant truncated HuCoV-NL63 nucleocapsid (N) protein AA100-377 (HuCoV-NL63, UniProt Q6Q1R8)
[5] = biological target: recombinant truncated SARS-CoV-2 nucleocapsid (N) protein AA133-419 (SARS-CoV-2, UniProt P0DTC9)
[6] = biological target: T1, recombinant truncated HuCoV-NL63 …

Row | Binder | Corected Average (background-corrected A450) [1] | Corected Average (background-corrected A450) [2] | Corected Average (background-corrected A450) [3] | Corected Average (background-corrected A450) [4] | Corected Average (background-corrected A450) [5] | Corected Average (background-corrected A450) [6]
1 | mBG67 mouse monoclonal antibody against SARS-CoV-2 nucleocapsid protein (antibody, V domains shown) VH: EVQLVESGGGLVQPGGSLKLSCAASGFTFSNYGMSWVRQTPDKRLELVATINRNGGSTYYLDSVKVRFTISRDNAKSTLFLQLSSLKSDDTAMYYCARIYDFDEDYFDVWGAGTTVTVSS VL: QIVLTQSPAIMSASLGERVTMTCTASSSVSSSYLHWYQQKPGSSPKLWIYSTSNLASGVPARFSGSGSGTSYSLTISSMEAEDAATYYCLQYHRSPWTFGGGTKLEIK | 0.861 absorbance at 450nm | 0.094 absorbance at 450nm |  |  |  | 
2 | mBG86 mouse monoclonal antibody against SARS-CoV-2 nucleocapsid protein (antibody, V domains shown) VH: EVQLVESGGGLVQPGGSLKLSCAASGFTFSNYGMSWVRQTPDKRLELVATINRNGGSTYYLDSVKVRFTISRDNAKSTLFLQMSSLKSEDTAMYYCARIYDYDEDYFDVWGAGTTVTVSS VL: QIVLTQSPAIMSASLGERVTMTCTASSSVSSSYLHWYQQKPGSSPKLWIYSTSNLASGVPARFSGSGSGTSYSLTISSMEAEDAATYYCLQYHRSPWTFGGGTKLEIK | 0.806 absorbance at 450nm |  |  |  |  | 
3 | mBG21 mouse monoclonal antibody against SARS-CoV-2 nucleocapsid protein (antibody, V domains shown) VH: QIQLVQSGPELKKPGETVKISCKASGYTFTDYSMHWVKQAPGKGSKWMGWINTETGEPTYADDFKGRFAFSLETSASTAYLQINNLKNEDTATYFCALRRWGQGTLVTVSA VL: IVMTQTPKFLLVSAGDRVTITCKASQSVSNDVAWFQQKPGQSPKLLIYFASNRYTGVPDRFTGSGYGTDFTFTITTVQAEDLAVYFCQQDYSSPWTFGGGTKLEIK |  |  | 0.302 absorbance at 450nm | 0.339 absorbance at 450nm | 0.743 absorbance at 450nm | 
4 | mBG22 mouse monoclonal antibody against SARS-CoV-2 nucleocapsid protein (antibody, V domains shown) VH: QIQLVQSGPELKKPGETVKISCKASGYTFTDYSMHWVKQAPGKGSKWMGWINTETGEPTYADDFKGRFAFSLETSASTAYLQINNLKNEDTATYFCALRRWGQGTLVTVSA VL: IVMTQTPKFLLVSAGDRVTITCKASQSVSNDVAWFQQKPGQSPKLLIYFASNRYTGVPDRFTGSGYGTDFTFTITTVQAEDLAVYFCQQDYSSPWTFGGGTKLEIK |  |  | 0.779 absorbance at 450nm | 0.339 absorbance at 450nm | 0.754 absorbance at 450nm | 
5 | mBG17 mouse monoclonal antibody against SARS-CoV-2 nucleocapsid protein (antibody, V domains shown) VH: EVKLEESGGGLVQPGGSMKFSCVASGFTFSDYWMNWVRQSPDKGLEWVAEIRLKSNNYATHYAASVKGRFTISRDDSKSSVYLQMNNLRAEDSGIYYCTRSAMDYWGQGTSVTVSS VL: DIVMSQSPSSLAVSVGEKITMSCKSSQSLLYTSDQKNYLAWFQQKPGQSPKLLIFWASTRDSGVPDRFTGSGSGTDFTLTISSVKAEDLAVYYCQQFYNYPRTFGGGTKLEIK | 0.832 absorbance at 450nm | 0.872 absorbance at 450nm |  |  |  | 0.365 absorbance at 450nm
